The chains are these.
B1: H1H6781P: anti-PRLR antibody, human IgG1 Fc; HCVR/LCVR SEQ ID NOs 50/58 (antibody, V domains shown)
VH: EVQLVESGGDLVQPGESLRLSCTASGFTFNSYEMNWVRQAPGKGLEWVSYISSSGGTKYYVDSVKGRFTISRDNAKKSLYLQMNSLRADDTALYYCARLNGVDVFDIWGQGTMVTVSS
VL: DIQMTQSPSSLSASVGDRVTITCRASQDIFNYLAWFQQKPGKVPELLISAASTLQSGVPSRFSGSGSGTYFTLTISSLQPEDIATYYCQRYNSAPLTFGGGTKVEIK
modifications: human IgG1 Fc
B2: H1H6785P: anti-PRLR antibody, human IgG1 Fc; HCVR/LCVR SEQ ID NOs 98/106 (antibody, V domains shown)
VH: EVQLVESGGGLVQPGGSLRLSCAASGFTFSSYEMNWVRQAPGKGLEWISYISSRGGTIYYADSIKGRFTIYRDNARNSLYLQMNSLRAEDTAIYYCARLSGVDIFDIWGQGTMVTVSS
VL: B1 VL with D28G, F30S, F36Y, E45K, S49Y, A50F, S65G, Y70D, I83V
modifications: human IgG1 Fc
B3: H1H6790P: anti-PRLR antibody, human IgG1 Fc; HCVR/LCVR SEQ ID NOs 114/122 (antibody, V domains shown)
VH: EVQLVESGGGLVQPGGSLRLSCAASGFTFSSYAMTWVRQAPGKGLEWVSAITGSVGNTYYADSVKGRFTISRDNSKNTLYLQMNSLGAEDTAEYYCAKGAGMTTNWYLDLWGRGTLVTVSS
VL: DIVMTQSPDSLAVSLGARATINCKSSQSVLYSSNNQNYLTWYQQKPGQPPKLLIKWASTRESGVPDRFSGSGSGTDFTLTISSLQAEDVAVYYCQQYASSPYTFGQGTKLEIK
modifications: human IgG1 Fc
B4: H1H6762P: anti-PRLR antibody, human IgG1 Fc; HCVR/LCVR SEQ ID NOs 2/10 (antibody, V domains shown)
VH: QVQLVESGGGVVQPGRSLRLSCAASGFTFSHYGMVWVRQPPGKGLEWVALISFDGTTKYYADSVKGRFTISRDNSKNTLYLQMNSLRAEDTAVYFCVGAIAAAAFDLWGRGTLVTVSS
VL: EIVMTQSPATLSVSPGERATLSCRASQSVSSDLAWYQQKPGQAPRLLIYSASARATGIPARFTGSGSGTDFTLTISSLQSEDFAVYYCQQYNNWPMYTFGQGTKLEIK
modifications: human IgG1 Fc
B5: H1H6765P: anti-PRLR antibody, human IgG1 Fc; HCVR/LCVR SEQ ID NOs 18/26 (antibody, V domains shown)
VH: EVQLVESGGGVVRPGGSLRLSCVGSGFSFDDHGMNWVRQGPGKGLEWVSGFNWNGGSTNYAESVKGRFTISRDNARNSLFLQMNSLRAEDTALYYCVRGRSGWFNDAFDVWGPGTMVTVSS
VL: EIVLTQSPGTLSLSPGERATLSCRASQTINSNYLAWYRQKPGQTPRLLIYGTSSRATGIPDRFSGSGSGTDFSLTISRLEPEDFAVFYCQQYAGLPTFGPGTKVDIK
modifications: human IgG1 Fc
B6: H1H6782P: anti-PRLR antibody, human IgG1 Fc; HCVR/LCVR SEQ ID NOs 66/74; non-blocking (antibody, V domains shown)
VH: EVQLVESGGGLVQPGRSLRLSCAASGFTFDDYAMHWVRQAPGKGLEWVSGIIWNSGHIGYGDSVKGRFTISRDNAKKSLYLQMNSLRAEDTALYYCARDSGRYQSYFDYWGQGTLVTVSS
VL: DIQMTQSPSTLSASVGDRVTITCRASHIISSWLAWYQQKPGKAPKVLIFKASSLESGVPSRFSGSGSGTEFTLTISSLQPDDFATYYCQQYNTYSRTFGQGTKVEIK
modifications: human IgG1 Fc
B7: H1H6774P: anti-PRLR antibody, human IgG1 Fc; HCVR/LCVR SEQ ID NOs 34/42 (antibody, V domains shown)
VH: EVQLVESGGGLAQPGGSLRLSCVASGFTFSTYWMSWVRQAPGKGLDWVGNIKQDGSEQNYVDSVRGRFTISRDNAKNSLFLQMNSLRAEDTGVYYCATLLTKGDYWGQGTLVTVSS
VL: DIQMTQSPSSLSASVGDSVTITCRASQDISNYLDWFQQKPGKAPKSLIYAASILQGGVPSRFSGSGYGTDFTLTISSLQPEDFATYYCRQYKTYPFTFGPGTKVDIK
modifications: human IgG1 Fc

Numbering of substitutions follows the chain as printed.

The test system of the first experiment is HEK293/hPRLR/STAT5-Luc cells (human PRLR). In words: STAT5-Luc luciferase reporter assay, blocking of PRL-mediated receptor activation. It counts as cell-based. The following applies: 5 nM constant PRL, 6 hr at 37° C. The text has this:
The ability of anti-PRLR antibodies to block prolactin (PRL)-mediated receptor activation was examined in a luciferase-based reporter assay. The endocrine hormone PRL binds to the extracellular domain of its cognate receptor PRLR, triggering rapid homodimerization and activating several downstream signaling cascades.
In this example, an engineered cell line was used to determine the ability of anti-PRLR antibodies to block ligand activation of the PRLR receptor. Briefly, HEK293/hPRLR/STAT5-Luc cell lines with stable incorporation of a human PRLR expression cassette and the STAT5-dependent luciferase reporter were generated via sequential rounds of Lipofectamine® 2000-mediated transfection (LifeTechnologies, Carlsbad, Calif.). Cells were selected for at least two weeks in the presence of 500 μg/mL G418 (hPRLR) and 100 μg/mL hygromycin B (STAT5-Luc). The STAT5-Luc assay utilized 2×10^5 HEK293/hPRLR/STAT5-Luc cells seeded in complete growth medium on PDL-coated 96 well plates grown overnight at 37° C., 5% CO2. To generate antibody inhibition curves, cells were incubated (6 hr at 37° C.) with serially diluted anti-human PRLR antibodies (100 nM to 24 pM) in the presence of 5 nM constant PRL before recording signal. PRL dose response curves were generated by the addition of serially diluted PRL (100 nM to 24 pM) to cells and recording signal after a 6 hr (37° C.) incubation in the absence of antibodies. The ability of the antibodies to activate PRLR in the absence of ligand was also assessed.
Luciferase activity was measured with ONE-GLO™ reagent (Promega, Madison, Wis.). Relative light units (RLUs) were measured on a Victor luminometer (Perkin Elmer, Shelton, Conn.). EC50/IC50 values were determined from a four-parameter logistic equation over an 8-point response curve using GraphPad Prism. Percent blocking and percent activation are reported for the highest antibody dose.
A general note: In a reporter assay the amount or activity of a reporter protein is the signal.
For B1, the IC50 (commonly the concentration that gives 50% inhibition) worked out at 0.027 nM.

Regarding B2, the concentration for half-maximal inhibition (IC50) is 0.345 nM.

Regarding B3, the IC50 amounted to 0.206 nM.

Consider B4, for which the 50% inhibitory concentration (IC50) came out at 0.0219 nM.

As to B5, the IC50 came out at 0.033 nM.

As to B6, the IC50 is > 100 nM.

The same experiment, now with this note: 100 nM antibody, 5 nM PRL.
As for B7, the “Percent Blocking at 100 nM Antibody” value turned out to be 0%.

As for B1, the “Percent Blocking at 100 nM Antibody” value is reported as 100%.

Consider B2, for which the “Percent Blocking at 100 nM Antibody” value is given as 100%.

On to B3, for which the “Percent Blocking at 100 nM Antibody” value is listed as 100%.

For the molecule B4, the “Percent Blocking at 100 nM Antibody” value turned out to be 100%.

B5: the “Percent Blocking at 100 nM Antibody” value was determined as 100%.

On to B6, for which the “Percent Blocking at 100 nM Antibody” value is 0%.

Another experiment deals with HEK293/mfPRLR. In words: FACS cell surface binding. Also on record: species or system macaca fascicularis.
Sequence of HEK293/mfPRLR (as listed by the source): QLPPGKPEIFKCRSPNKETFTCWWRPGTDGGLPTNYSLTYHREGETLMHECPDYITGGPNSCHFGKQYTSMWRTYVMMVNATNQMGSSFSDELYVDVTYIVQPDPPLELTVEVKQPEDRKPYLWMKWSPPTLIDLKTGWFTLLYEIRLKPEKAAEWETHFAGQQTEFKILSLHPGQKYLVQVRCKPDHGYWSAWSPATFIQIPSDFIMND
Conditions: not given
As for the experimental part:
The ability of anti-PRLR antibodies to selectively bind PRLR expressing cell lines was next determined. Human, monkey macaca fascicularis, and mouse PRLR constructs with an HA tag were stably introduced into HEK293 cells via Lipofectamine 2000-mediated transfection methodology. Transfectants (HEK293/hPRLR, HEK293/mfPRLR and HEK293/mPRLR) were selected for at least 2 weeks in complete growth media plus G418.
Cell surface expression of PRLR on 293/hPRLR cells was assessed via FACS analysis. Briefly, 1×10^5 cells were incubated with 10 μg/ml of Control antibody I, or an isotype control for 30 min on ice in antibody dilution buffer. Following two washes with antibody dilution buffer, cells were incubated with 10 μg/ml of PE conjugated anti-human secondary antibodies for 30 min on ice. Following two additional washes, samples were run on a Hypercyt® cytometer and analyzed in FORECYT™ (IntelliCyt, Albuquerque, N. Mex.). The mean fluorescence intensities (MFI) were expressed as fold change above isotype control levels (background). FACS binding confirmed that Control I selectively bound to 293/hPRLR expressing cells with MFIs that were 30 fold above background (isotype ctrl) levels and less than 2 fold binding on parental cells.
Next, the anti-PRLR antibodies of the present invention were tested via FACS for selective binding to the engineered overexpressing PRLR HEK293 cell lines, as well as to non-expressing HEK293 cells and a native PRLR expressing cell line (T47D).
Consider B7, for which the “FACS Cell Binding (Fold Above Background)” value is on record as 29 Fold Above Background.

On to B1, for which the “FACS Cell Binding (Fold Above Background)” value was determined as 26 Fold Above Background.

Take B2: the “FACS Cell Binding (Fold Above Background)” value came to 26 Fold Above Background.

In the case of B3, the “FACS Cell Binding (Fold Above Background)” value was 24 Fold Above Background.

Consider B4, for which the “FACS Cell Binding (Fold Above Background)” value was 26 Fold Above Background.

As to B5, the “FACS Cell Binding (Fold Above Background)” value was found to be 27 Fold Above Background.

As to B6, the “FACS Cell Binding (Fold Above Background)” value was 32 Fold Above Background.

A further experiment concerns the target T1, PRLR-expressing cells (T47D) (Homo sapiens, UniProt P16471).
T1 construct: a native PRLR expressing cell line (T47D); endogenous in cells; host or cells: T47D
T1 sequence (P16471 25-622): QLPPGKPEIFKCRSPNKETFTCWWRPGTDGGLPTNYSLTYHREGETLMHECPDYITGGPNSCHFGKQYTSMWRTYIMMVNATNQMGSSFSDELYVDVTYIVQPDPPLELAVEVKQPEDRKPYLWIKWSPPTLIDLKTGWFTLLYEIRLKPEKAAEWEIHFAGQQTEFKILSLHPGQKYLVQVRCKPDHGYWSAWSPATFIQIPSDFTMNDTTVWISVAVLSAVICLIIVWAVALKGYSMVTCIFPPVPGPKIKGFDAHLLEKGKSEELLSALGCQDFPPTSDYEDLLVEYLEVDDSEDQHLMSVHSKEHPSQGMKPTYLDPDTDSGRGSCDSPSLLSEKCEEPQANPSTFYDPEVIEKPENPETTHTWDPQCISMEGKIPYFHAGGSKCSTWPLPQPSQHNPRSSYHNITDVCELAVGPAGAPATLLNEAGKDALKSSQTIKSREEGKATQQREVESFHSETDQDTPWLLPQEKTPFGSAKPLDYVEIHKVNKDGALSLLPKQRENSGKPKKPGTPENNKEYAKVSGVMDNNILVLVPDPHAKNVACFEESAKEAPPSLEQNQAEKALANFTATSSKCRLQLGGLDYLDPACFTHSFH
In words: Antibody binding and internalization by PRLR-expressing cells (imaging). It counts as cell-based. The following applies: [mAb] (0.67 nM), alexa488 intensity in intracellular vesicles, 1 h at 37° C. As to the method: In this Example, the internalization of anti-PRLR antibodies by PRLR-expressing cells (T47D) was assessed. Briefly, 20,000 T47D cells were seeded in collagen coated 96 well plates. […] Cells were then incubated with alexa488 conjugated anti-hFc Fab secondary antibodies for 30 minutes on ice followed by two additional PBS washes. Antibodies were allowed to internalize for 1 h at 37° C. in internalization buffer (PBS+2% FBS) or remained at 4° C. Cells were fixed in 4% formaldehyde, nuclei were stained with DRAQ5 (Cell signaling), and images were acquired on the ImageXpress micro XL (Molecular Devices). Whole cell alexa488 intensity at 37° C. (Binding) and the alexa488 intensity in the intracellular vesicles at 37° C. (Internalization) were determined via Columbus image analysis software (PerkinElmer).
On to B7, for which the “% Internalization relative to Control I” value is listed as 162.3%.

Regarding B1, the “% Internalization relative to Control I” value worked out at 165.1%.

Regarding B2, the “% Internalization relative to Control I” value came out at 169.1%.

As for B3, the “% Internalization relative to Control I” value was 146.9%.

B4: the “% Internalization relative to Control I” value turned out to be 186.3%.

With B5, the “% Internalization relative to Control I” value amounted to 186.3%.

Turning to B6, the “% Internalization relative to Control I” value is listed as 179.3%.

The same experiment, now with this note: [mAb] (0.67 nM), whole cell alexa488 intensity at 37° C.
On to B7, for which the “% Total Binding relative to Control I” value amounted to 173.7%.

Turning to B1, the “% Total Binding relative to Control I” value turned out to be 166.2%.

For B2, the “% Total Binding relative to Control I” value is 168.0%.

Take B3: the “% Total Binding relative to Control I” value came out at 122.8%.

As for B4, the “% Total Binding relative to Control I” value stood at 176.7%.

Regarding B5, the “% Total Binding relative to Control I” value is reported as 191.3%.

Take B6: the “% Total Binding relative to Control I” value came to 209.9%.

Source of the values: US9688764B2, “Methods of treating breast cancer by administering anti-human prolactin receptor (PRLR) antibodies” (REGENERON PHARMACEUTICALS, INC., priority 2013, dated 2017).
